Two molecules from US6872537 (University of California, dated 2005) can be followed below.

Sequences and labels used below:
B1: baculovirus-expressed S. purpuratus katanin p80 subunit with N-terminal His(6) tag (other)
chain: HHHHHHMATKRAWKLQELVAHSSNVNCLALGPMSGRVMVTGGEDKKVNLWAVGKQNCIISLSGHTSPVDSVKFNSSEELVVAGSQSGTMKIYDLEPAKIVRTLTGHRNSIRCMDFHPFGEFVASGSTDTNVKLWDVRRKGCIYTYKGHSDQVNMIKFSPDGKWLVTASEDTTIKLWDLTMGKLFQEFKNHTGGVTGIEFHPNEFLLASGSSDRTVQFWDLETFQLVSSTSPGASAVRSISFHPDGSYLFCSSQDMLHAFGWEPIRCFDTFSVFWGKVADTVIASTQLIGASFNATNVSVYVADLSRMSTTGIAQEPQSQPSKTPSGGAEEVPSKPLTASGRKNFVRERPHTTSSKQRQPDVKSEPERQSPTQDEGVKDDDATDIKDPDSYAKIFSPKTRVDHSPERNAQPFPAPLDVPGAQEPEPFKHPPKPAAAAAVAPVSRAPAPSASDWQPAQANPAPNRVPAATKPVPAQEVAPSRKPDPISTIIPSDRNKPANLDMDAFLPPAHAQQAPRVNAPASRKQSDSERIEGLRKGHDSMCQVLSSRHRNLDVVRAIWTAGDAKTSVESVVNMKDQAILVDILNIMLLKKSLWNLDMCVVVLPRLKELLSSKYENYVHTSCACLKLILKNFTSLFNQNIKCPPSGIDITREERYNKCSKCYSYLIATRGYVEEKQHVSGKLGSSFRELHLLLDQLE
notes: Expressed from pFastBac HT in Sf9 cells; also called p80 katanin; recombinant p80
B2: baculovirus-expressed S. purpuratus katanin p60 subunit with N-terminal His(6) tag (enzyme)
chain: HHHHHHMSVDEICENTKMGREYALLGNYETSLVYYQGVLQQIQKLLTSVHEPQRKHQWQTIRQELSQEYEHVKNITKTLNGFKSEPAAPEPAPNHGRAAPFSHHQHAAKPAAAEPARDPDVWPPPTPVDHRPSPPYQRAARKDPPRRSEPSKPANRAPGNDRGGRGPSDRRGDARSGGGGRGGARGSDKDKNRGGKSDKDKKAPSGEEGDEKKFDPAGYDKDLVENLERDIVQRNPNVHWADIAGLTEAKRLLEEAVVLPLWMPDYFKGIRRPWKGVLMVGPPGTGKTMLAKAVATECGTTFFNVSSASLTSKYHGESEKLVRLLFEMARFYAPSTIFIDEIDSICSKRGTGSEHEASRRVKSELLIQMDGVSGPSAGEESSKMVMVLAATNFPWDIDEALRRRLEKRIYIPLPEIDGREQLLRINLKEVPLADDIDLKSIAEKMDGYSGADITNVCRDASMMAMRRRIQGLRPEEIRHIPKEELNQPSTPADFLLALQKVSKSVGKEDLVKYMAWMEEFGSV
notes: Expressed from pFastBac HT in Sf9 cells; also called p60 katanin; recombinant p60

In data set [1] the target is B2. Kind of data set: Ni-NTA purification of co-expressed His-tagged subunits, Coomassie-stained SDS-PAGE.
Data set [2] concerns the molecule itself. In words: rotary-shadowing electron microscopy of recombinant p60 on mica (self-association into rings).
Data set [3] addresses B1. Kind of data set: co-immunoprecipitation from insect cells co-infected with p60 and p80 baculoviruses, SDS-PAGE with Coomassie. The protocol:
6xHis-tagged (SEQ ID NO:14) katanin subunits were purified from lysates of baculovirus-infected insect cells by binding to Ni^2+-NTA Superflow followed by elution with imidazole, as described in the Experimental Procedures. […] Proteins bound to the resin were analyzed by SDS-PAGE followed by staining with Coomassie.
After equilibration in TBST, 20–40 μl of antibody beads were added to katanin samples diluted in TBST containing 1–2 mg/ml soybean trypsin inhibitor (SBTI). The immunoprecipitations were incubated at 4° C. for 1–2 hr, washed five times with 1 ml of ice-cold TBST, and eluted in SDS-containing sample buffer.

B1: the “p60:p80 molar ratio in the purified co-expressed protein” value in data set [1] is approximately 0.9 mol p80 per mol p60.

B2: the binding result in data set [2] and in data set [3] was “binds” each time.
